Data reported in the nanobody polyreactivity screen of Harvey et al. (2022).

Assay: yeast display, Sf9 membrane polyspecificity reagent, FACS + sequencing; frameworks hold sequencing errors
How it was run: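 In a synthetic yeast display library (Saccharomyces cerevisiae BJ5465), nanobody expression was induced with galactose for 36–48 hours. FACS gates were set low and high (top ~1%) using anti-HA fluorescence for expression and streptavidin fluorescence for binding of the Sf9 membrane reagent. Each polyreactivity label is drawn from the gate of origin.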

Row | Sequence | polyreactivity (PSR sort gate)
1 | QVQLVEAGGGLDQPGGSLRLSCAASGSTFYVNTRRWYIQAPGQELELVAAISSTGSSTYFADSVKGRFTISRDNAKNTVYLQMNSLKPEDTAVYYCAAESYRWWYLYDYYYWGQGTQVTVSS | high polyreactivity
2 | QVQLVESGGGLVQAGGSLRLSCAASGRTFPYNARGWYRQAPGKERELVAAISSRGGSTYYADSVKGRFTISRDNAKNTVYLQMNSLKPEDTAVYYCAAQFRFSGMGYWGQGTQVTVSS | high polyreactivity
3 | QVQLVESGGGLVQAGGSLRLSCAASGIIFWGNAMGWYRQAPGKERELVATITGRGGSTYYADSVKGRFTISRDNAKNTVYLQMNSLKPEDTAVYYCAASGGRPIFFYDVWGGIVRHDYWGQGTQVTVSS | low polyreactivity
4 | QVQLVESGGGLVQAGGSLRLSCAASGYIFRNVMGWYRQAPGKERELVATISGSGGSTYYADSVKGRFTISRDNAKNTVYLQMNSLKPEDTAVYDCSKRWYRLGRYGGYDYWGQGTQVTVSS | high polyreactivity
5 | QVQLVESGGGLLQAGGSLRLSCAASGRIFYGYTMVRYRQAPGKERELVASITIRGSRTYYADSVKGRFTISRDNAKNTVYLQMISQKPEDTAVSYCAADFVPARTVHRYDYWGQGTQVTVSS | low polyreactivity
6 | QVQLVESGGGLVQAGGSLRLSCAASGRIFYYNTMGWYRQAPGKERELVAAITRSGGSTYYADSVKGRFTISRDNAKNTVYLQMNSLKPEDTAVYYCAARSTHPGSVGYWGQGTQVTVSS | high polyreactivity
7 | QVQLVESGGGLVQAGGSLRLSCAASGSIFRRYAMGWYRQAPGKERELVAAISRSGSSTYADSVKGRFTISRDNEKNTVYLQMNSLKPEDTEVYYCNRVRLNTEGFDYWGQGTQVTVSS | low polyreactivity
8 | QVQLVESGGGLVQAGGSLRLSCAASGITFYYYAMGWYRQAPGKERELVASISSVGTTYYADSVKGRFTISGDNAKNTFYLEMNSLKPVDTAVYYCAAVDYVRYYPDEFDYWGQGTQVTVSS | low polyreactivity
9 | QVQLVESGGGLVQAGGSLRLSCAASGRISDDYAMGWYRQAPGKERELVADITSGGNTYYADSVKGRFTISRDNAKNTVYLQMNSLKPEDTAVYYCNAYYVGYIRYWTNKLVDYWGQGTQVTVSS | high polyreactivity
10 | QVQLVESGGGLVQAGGSLRLSCAASGRTFSKYTMGWYRQATGKERELVAAIDRSGGSTYYADSVKGRFTISRDNAKNTVYLQMNSLKPEDTAVYYCAAVYYLVPGNYWGHGTQVTVSS | high polyreactivity
11 | QVQLVESGGGLVNAGGSLRLSCAASGSIFKYNVMGWYRQAPGKEREMVAAITSRGTSTYYADSVKGRFTISRDNAKNTVYLQMNSLKPEDTAVYYCAADDNYYTFGYWGQGTQVTVSS | high polyreactivity
12 | QVQLVESGGGLVQAGGSLSISCAASDLPGLCYGWYRQAPGKERELVAAMTSNGGSTYYADSVKGRFTISRDNAKITVYLQMNSLKPEDTAVYYCATEHHTVQVYDYWGQGTQVTVSS | low polyreactivity
13 | QVQLVESGGGLVQAGGSLRLSCAASGSTFPHYAMGWYRQAPGKERELVAAISWSGSSTYYADSVKGRFTISRDNAKNTVYLQMNSLKPEDTAVYYCNKLPRRAPQFTYDYWGQGTQVTVSS | high polyreactivity
14 | QVQLVESGGGLVQAGGSLRLSCAASGFNFRVNAMGWYRQAPGKERELVAAITKSGGSTYYADSVKGRFTISRDNAKNTVYLQMNSLKPEDTAVYYCNVVWQYSTYVRYNYWGQGTQVTVSS | low polyreactivity
15 | QVQLVESWGGLVQAGGSLRLSCAASGFTFRYYAMGWYRQAPGKERELVAAITGSGTRTYYADSVKGRFTISRDNAKNTVYLQMNSLKPEDTAVYYCNAPRQPRWFDYWGQGTQVTVSS | high polyreactivity
16 | QVQLQESGGGLVQAGGSLRLSCAASGYISDGYVMGWYRQAPGKEREFVATISGGTTAYYADSVKGRFTISRDNAKNTVYLQMNSLKPEDTAVYYCAAETSYYWDYDYWGHGTQVTVSS | high polyreactivity
17 | QVQLVESGGGLVQAGGSLRLSCAASGRIFKGYAMGWYRQAPGKERELVAAITWRGGTTYYADSVKGRFTISRDNAKNTVYLQMNSLKPEDTAVYYCAVSGKTAHSPQRYYYWGQGTQVTVSS | high polyreactivity
18 | QVQLVESGGGLVQAGGSLRLSCAASGIFVGNAMGWYRQAPGKERELVAAITGDGDSTYYADSVKGRFTISRDNAKNTVYLQMNSLKPEDNAVYYCNTVFDTIVDKYYYWGQGTQVTVSS | low polyreactivity
19 | QVQLVESGGGLVQAVGSHRLICAASGSIFPYYAMGWYRQAPGKERELVATITYRGGSTNYADSVKGRFTISRDNAKNTVYLQMNSLKPEDTAVYYCAAEYYSIRYGPHSIEVYGMDYWGQGTHVTVSS | low polyreactivity
20 | QVHLVESGGGLVQAGGSLRLSCAASGRTYGVNAMGRYRQAPGKEREFVAAISKRGGSTYYADSVKGRFTISRDNAKNTVYLQMNSLKPEDTAGYYCAADYTTHYWGQGTQVTVSS | high polyreactivity
21 | QVQLVESGGGLVQAGGSLRLSCAASGFTIVYYAMGWYRQAPGKERELVAAITWSGGNTYYADSVKWRITISRDNAKNTVYLHMNSLKPEDNAVYYCAASPRGRRTTVGYPRRPFDYWGLGTQVTVSS | high polyreactivity
